From US20260117202A1

Columns and labels:
Assay in all cases: sandwich ELISA, AM14 coated, supernatant 1:10
FHS-98 (RSV strain A2) = FHS-98 (RSV strain A2) (UniProt P03420)
FHM-5 (RSV strain A2) = FHM-5 (RSV strain A2) (UniProt P03420)
FHM-16 (RSV strain A2) = FHM-16 (RSV strain A2) (UniProt P03420)
FHS-85 (RSV strain A2) = FHS-85 (RSV strain A2) (UniProt P03420)
FHS-66 (RSV strain A2) = FHS-66 (RSV strain A2) (UniProt P03420)
FHS-81 (RSV strain A2) = FHS-81 (RSV strain A2) (UniProt P03420)
FHS-43 (RSV strain A2) = FHS-43 (RSV strain A2) (UniProt P03420)
FHS-26 (RSV strain A2) = FHS-26 (RSV strain A2) (UniProt P03420)
FHS-39 (RSV strain A2) = FHS-39 (RSV strain A2) (UniProt P03420)
FHS-10 (RSV strain A2) = FHS-10 (RSV strain A2) (UniProt P03420)
FHS-97 (RSV strain A2) = FHS-97 (RSV strain A2) (UniProt P03420)
FHS-59 (RSV strain A2) = FHS-59 (RSV strain A2) (UniProt P03420)
FHS-32 (RSV strain A2) = FHS-32 (RSV strain A2) (UniProt P03420)
FHS-65 (RSV strain A2) = FHS-65 (RSV strain A2) (UniProt P03420)
FHS-31 (RSV strain A2) = FHS-31 (RSV strain A2) (UniProt P03420)
FHS-20 (RSV strain A2) = FHS-20 (RSV strain A2) (UniProt P03420)
FHS-18 (RSV strain A2) = FHS-18 (RSV strain A2) (UniProt P03420)
FHS-12 (RSV strain A2) = FHS-12 (RSV strain A2) (UniProt P03420)
FHS-62 (RSV strain A2) = FHS-62 (RSV strain A2) (UniProt P03420)
FHS-91 (RSV strain A2) = FHS-91 (RSV strain A2) (UniProt P03420)
FHM-6 (RSV strain A2) = FHM-6 (RSV strain A2) (UniProt P03420)
FHS-55 (RSV strain A2) = FHS-55 (RSV strain A2) (UniProt P03420)
FHS-15 (RSV strain A2) = FHS-15 (RSV strain A2) (UniProt P03420)
FHM-17 (RSV strain A2) = FHM-17 (RSV strain A2) (UniProt P03420)
FHM-3 (RSV strain A2) = FHM-3 (RSV strain A2) (UniProt P03420)
FHS-54 (RSV strain A2) = FHS-54 (RSV strain A2) (UniProt P03420)
FHS-61 (RSV strain A2) = FHS-61 (RSV strain A2) (UniProt P03420)
FHM-22 (RSV strain A2) = FHM-22 (RSV strain A2) (UniProt P03420)
FHM-8 (RSV strain A2) = FHM-8 (RSV strain A2) (UniProt P03420)
FHS-1 (RSV strain A2) = FHS-1 (RSV strain A2) (UniProt P03420)
[1] = molecular target: wild-type RSV F protein 1 before artificial mutation (RSV strain A2) (UniProt P03420)
FHS-2 (RSV strain A2) = FHS-2 (RSV strain A2) (UniProt P03420)
FHS-6 (RSV strain A2) = FHS-6 (RSV strain A2) (UniProt P03420)
FHS-79 (RSV strain A2) = FHS-79 (RSV strain A2) (UniProt P03420)
FHM-7 (RSV strain A2) = FHM-7 (RSV strain A2) (UniProt P03420)
FHM-25 (RSV strain A2) = FHM-25 (RSV strain A2) (UniProt P03420)
FHS-67 (RSV strain A2) = FHS-67 (RSV strain A2) (UniProt P03420)
FHS-60 (RSV strain A2) = FHS-60 (RSV strain A2) (UniProt P03420)
FHS-34 (RSV strain A2) = FHS-34 (RSV strain A2) (UniProt P03420)
FHS-50 (RSV strain A2) = FHS-50 (RSV strain A2) (UniProt P03420)
FHS-16 (RSV strain A2) = FHS-16 (RSV strain A2) (UniProt P03420)

AM14 monoclonal antibody gave an OD value (FHS-98 (RSV strain A2)) of 0.007 OD, an OD value (FHM-5 (RSV strain A2)) of 1.96 OD and an OD value (FHM-16 (RSV strain A2)) of 0.26 OD. The OD value (FHS-85 (RSV strain A2)) was 0.008 OD, the OD value (FHS-66 (RSV strain A2)) was 1.75 OD and the OD value (FHS-81 (RSV strain A2)) was 0.008 OD. For the same substance, the OD value (FHS-43 (RSV strain A2)) was 0.006 OD, the OD value (FHS-26 (RSV strain A2)) was 0.841 OD and the OD value (FHS-39 (RSV strain A2)) was 0.007 OD. It also gave an OD value (FHS-10 (RSV strain A2)) of 0.069 OD, an OD value (FHS-97 (RSV strain A2)) of 0.006 OD and an OD value (FHS-59 (RSV strain A2)) of 0.006 OD. For the same substance, the OD value (FHS-32 (RSV strain A2)) was 0.008 OD, the OD value (FHS-65 (RSV strain A2)) was 1.73 OD and the OD value (FHS-31 (RSV strain A2)) was 0.007 OD. For the same substance, the OD value (FHS-20 (RSV strain A2)) was 0.009 OD, the OD value (FHS-18 (RSV strain A2)) was 0.009 OD and the OD value (FHS-12 (RSV strain A2)) was 1.24 OD. It also gave an OD value (FHS-62 (RSV strain A2)) of 0.01 OD, an OD value (FHS-91 (RSV strain A2)) of 0.008 OD and an OD value (FHM-6 (RSV strain A2)) of 0.005 OD. It also gave an OD value (FHS-55 (RSV strain A2)) of 0.009 OD, an OD value (FHS-15 (RSV strain A2)) of 0.091 OD and an OD value (FHM-17 (RSV strain A2)) of 0.006 OD. For the same substance, the OD value (FHM-3 (RSV strain A2)) was 0.07 OD, the OD value (FHS-54 (RSV strain A2)) was 0.012 OD and the OD value (FHS-61 (RSV strain A2)) was 0.008 OD. The OD value (FHM-22 (RSV strain A2)) was 1.98 OD, the OD value (FHM-8 (RSV strain A2)) was 0.016 OD and the OD value (FHS-1 (RSV strain A2)) was 2.03 OD. For the same substance, the OD value [1] was 0.014 OD, the OD value (FHS-2 (RSV strain A2)) was 0.012 OD and the OD value (FHS-6 (RSV strain A2)) was 2.65 OD. It also gave an OD value (FHS-79 (RSV strain A2)) of 0.008 OD, an OD value (FHM-7 (RSV strain A2)) of 0.007 OD and an OD value (FHM-25 (RSV strain A2)) of 2.42 OD. For the same substance, the OD value (FHS-67 (RSV strain A2)) was 1.86 OD, the OD value (FHS-60 (RSV strain A2)) was 0.007 OD and the OD value (FHS-34 (RSV strain A2)) was 0.007 OD. For the same substance, the OD value (FHS-50 (RSV strain A2)) was 2.3 OD and the OD value (FHS-16 (RSV strain A2)) was 0.009 OD.
